Biological target: VSV G protein on VSV delta G pseudotyped virus-like particles (Vesicular stomatitis virus) (UniProt P03522)

Substance | VSV-VLP Binding Signal (RLU)
mAb10987 (antibody) | 1840
mAb10933 (antibody) | 507
mAb10936 (antibody) | 2320
mAb10934 (antibody) | 3880

— patent publication US20220356230A1
